Experimental data taken from patent US20210355194A1 (TWIST BIOSCIENCE, published 2021).

B1: variant 5-23 (Fc fusion)
VHH: EVQLVESGGGLVQPGGSLRLSCAASGSIFSIDVMGWFRQAPGKEREFVAAISWSGESTLYADSVKGRFTISADNSKNTAYLQMNSLKPEDTAVYYCAAFDGYSGSDWGQGTLVTVSS
B2: variant 5-3 (Fc fusion)
VHH: EVQLVESGGGLVQPGGSLRLSCAASGSIFSIDVMGWFRQAPGKEREFVAGISWSGDSTLYADSVKGRFTISADNSKNTAYLQMNSLKPEDTAVYYCAAFDGYTGSDWGQGTLVTVSS
B3: variant 5-13 (Fc fusion)
VHH: EVQLVESGGGLVQPGGSLRLSCAASGFTFDYYTMGWFRQAPGKEREFVAAIRSSGGLFYADSVKGRFTISADNSKNTAYLQMNSLKPEDTAVYYCAAYLDGYSGSWGQGTLVTVSS
B4: variant 5-15 (Fc fusion)
VHH: EVQLVESGGGLVQPGGSLRLSCAASGFTFDGAAMGWFRQAPGKEREFVATIRWTNSTDYADSVKGRFTISADNSKNTAYLQMNSLKPEDTAVYYCARGRYGIVERWGQGTLVTVSS
B5: variant 5-16 (Fc fusion)
VHH: EVQLVESGGGLVQPGGSLRLSCAASGRTHSIYPMGWFRQAPGKERELVAAIHSGGATVYADSVKGRFTISADNSKNTAYLQMNSLKPEDTAVYYCAARRWIPPGPIWGQGTLVTVSS
B6: variant 5-17 (Fc fusion)
VHH: EVQLVESGGGLVQPGGSLRLSCAASGPTFSIYAMGWFRQAPGKEREFVAGIRWSDVYTQYADSVKGRFTISADNSKNTAYLQMNSLKPEDTAVYYCALDIDYRDWGQGTLVTVSS
B7: variant 5-39 (Fc fusion)
VHH: EVQLVESGGGLVQPGGSLRLSCAASGVTLDLYAMGWFRQAPGKEREFVAGIRWTDAYTEYADSVKGRFTISADNSKNTAYLQMNSLKPEDTAVYYCAVDIDYRDWGQGTLVTVSS
B8: variant 5-21 (Fc fusion)
VHH: EVQLVESGGGLVQPGGSLRLSCAASGGTFTTYHMGWFRQAPGKEREFVAHISTGGATNYADSVKGRFTISADNSKNTAYLQMNSLKPEDTAVYYCATFPAIVTDSDYDLGNDWGQGTLVTVSS
B9: variant 5-22 (Fc fusion)
VHH: EVQLVESGGGLVQPGGSLRLSCAASGFTFNVFAMGWFRQAPGKEREFVAAINWSDSRTDYADSVKGRFTISADNSKNTAYLQMNSLKPEDTAVYYCASGSDNRARELSRYEYVWGQGTLVTVSS
B10: variant 5-26 (Fc fusion)
VHH: EVQLVESGGGLVQPGGSLRLSCAASGRTISSYIMGWFRQAPGKERELVARIYTGGDTIYADSVKGRFTISADNSKNTAYLQMNSLKPEDTAVYYCAARTSYNGRYDYIDDYSWGQGTLVTVSS
B11: variant 5-27 (Fc fusion)
VHH: EVQLVESGGGLVQPGGSLRLSCAASGRANSINWMGWFRQAPGKEREFVATITPGGNTNYADSVKGRFTISADNSKNTAYLQMNSLKPEDTAVYYCAAAAGSTWYGTLYEYDWGQGTLVTVSS
B12: variant 5-51 (Fc fusion)
VHH: EVQLVESGGGLVQPGGSLRLSCAASGRPNSINWMGWFRQAPGKERQFVATITPGGNTNYADSVKGRFTISADNSKNTAYLLMNSLKPEDTAVYYCAAAAGTTWYGTLYEYDWGQGTLVTVSS
B13: variant 5-28 (Fc fusion)
VHH: EVQLVESGGGLVQPGGSLRLSCAASGGTFSVFAMGWFRQVPGKERELVAEITAGGSTYYADSVKGRFTISADNSKNTAYLQMNSLKPEDTAVYYCAVDGPFGWGQGTLVTVSS
B14: variant 5-29 (Fc fusion)
VHH: EVQLVESGGGLVQPGGSLRLSCAASGFTFDDYPMGWFRQAPGKEREGVASVLRGGYTWYADSVKGRFTISADNSKNTAYLQMNSLKPEDTAVYYCAKDWATGLAWGQGTLVTVSS

target: T1, Acro SARS-CoV-2 (COVID-19) S1 protein (SARS-CoV-2, UniProt P0DTC2 16-685); assay: SPR
T1 construct: also called SARS-CoV-2 S1

| Binder | Kd [nM] |
| --- | --- |
| B1 | 84.8 |
| B2 | 64.6 |
| B3 | 37.5 |
| B4 | 96.2 |
| B5 | 50.2 |
| B6 | 3630 |
| B7 | 118 |
| B8 | 1070 |
| B9 | 109 |
| B10 | 21800 |
| B11 | 92.9 |
| B12 | 25.5 |
| B13 | 40 |
| B14 | 42.4 |
